This is an account of results in a protein production outcome set (Wang et al. 2014).

This series is described as follows: label from the status in PepcDB records.
For “MPGIDFDALYRGESPGEGLPPITTPPWDTKAPKDNVIGWHTGGWVHGDVLDIGCGLGDNAIYLARNGYQVTGLDISPTALTTAKRRASDAGVDVKFAVGDATKLTGYTGAFDTVIDCGMFHCLDDDGKRSYAASVHRATRPGATLLLSCFSNAMPPDEEWPRSTVSEQTLRDVLGGAGWDIESLEPATVRRELDGTEVEMAFWNVRAQRRGS”, the protein production entry was “failed”.
For “MYLSLLKSLNRLSPRAWDFVQLTRIDKPIGIYLLLWPTLWAVWIAGKGSPSLNTVFIFVAGVFLMRAAGCVINDFADRKVDGHVKRTEQRPLVSGKVSSREALVLFAVLVSLSFVLVLFTNSTTIWLSFGGLALAACYPFMKRYTYYPQVVLGAAFSWGMPMAFTAETGELPAAAWLLYIANLLWTVGYDTYYAMVDRDDDLKIGVKSTAVLFGDADRVIILSLQGLALGCLALAGSRFELGAFFYMGLLVAAACFAWEFWSTRLRERDACFKAFLHNHWAGLAIFLGIVADYALR”, the protein production entry is given as “failed”.
Regarding “CVECRKPIGADSKEVHYKNRFWHDTCFRCAKCLHPLANETFVAKDNKILCNKCTTREDSPKCKGCFKAIVAGDQNVEYKGTVWHKDCF”, the protein production entry is given as “not failed”.
Turning to “MSLKLYGFSVSNYYNMVKLALLEKGLTFEEVTFYGGQAPQALEVSPRGKVPVLETEHGFLSETSVILDYIEQTQGGKALLPADPFGQAKVRELLKEIELYIELPARTCYAESFFGMSVEPLIKEKARADLLAGFATLKRNGRFAPYVAGEQLTLADLMFCFSVDLANAVGKKVLNIDFLADFPQAKALLQLMGENPHMPRILADKEASMPAFMEMIRSGKREGHHHHHH”, the protein production result is recorded as “not failed”.
Under “MTLQLNFGRVEDMNKSSLTTTALTILRVIAGFLFAAHGWQKFNEFTIAGTQASFTQMGVPGASAVAPIVATLELVGGIALIIGLLTRVFAALLAVNMLGALFLVHAPAGVFVGNGGYELVLLFAGAALALALAGAGRISADAALFGRQSSKLRVLA” stands “failed”; under “MMKAYQREFIEFALEKQVLKFGEFTLKSGRKSPYFFNAGLFNTGRDLARLGRFYAAALVDSGIEFDVLFGPAYKGIPIATTTAVALADHHDVDTPYCFNRKEAKNHGEGGNLVGSKLEGRVMLVDDVITAGTAIRESMELIQANKADLAGVLVAIDRQEKGKGELSAIQEVERDFGCAVISIVSLTDLITYLEQQGNNTEHLEAVKAYRAQYGI”, “not failed”.
The result for “MVQTKRYAGLTAANTKKVAMAAPMFSIIIPTLNVAAVLPACLDSIARQTCGDFELVLVDGGSTDETLDIANIFAPNLGERLIIHRDTDQGVYDAMNRGVDLATGTWLLFLGADDSLYEADTLARVAAFIGEHEPSDLVYGDVIMRSTNFRWGGAFDLDRLLFKRNICHQAIFYRRGLFGTIGPYNLRYRVLADWDFNIRCFSNPALVTRYMHVVVASYNEFGGLSNTIVDKEFLKRLPMSTRLGIRLVIVLVRRWPKVISRAMVMRTVISWRRRR” reads “failed”; that for “KFTELEFHRIIGTGQFGLVRVVRNIKTNEVYALKVMHKAPIVESKQIEHVINERKILEEACTHPFCVRLCGAYQDKASLYLLQEWVPGGELFHHLDVEGAFDEPTAMFYAANVLLALEFLHAKGIVYRDLKPENLLLDTQGYIKMADFGFAKYIGGDKTYTICGTPDYQAPEVIMRRGTTKAADYWALGVLIFEMLVGDPPFKSLTGDPWDTFRRTLSGRFYVPNFISDQAADLIFKLLQVNPDKRLGSDKRLGAEEIKRHRWFSRIDWRALEQKKLPSPFRPRVRNPLDTSNFDNFDN”, “not failed”.
In the case of “MRKKLNNEYRSAKKIRYMPGLDGLRAIAVIGIIIYHLNKQWLTGGFLGVDTFFVISGYLITSLLLKEYEDTGTINLKNFWIRRIKRLLPAVFALIVVVGIATLLLHPEHIVRVKHDMIAAIFYVSNWWYIAKDVNYFEQFSFMPLKHLWSLAIEEQFYLFFPAVLLLFMAIVKKKKNVILMFWIISLVSLLMMVVISQPHLNHSRVYFGTDTRLQTLLLGVLLAFIWPPFKLNPNPPKGLKTVINSAGIIGLTFLILLFFTVSDESDWIYNGGFYLISTMTLLIIASVVHPTTILAKLLGNPLFVYIGKRSYSLYLWHFPVISFIHSYFIDGQLPTYVYIMDIVITVLLAELSFRYVETPLRKEGLKAFTFKKTYKPQFIRTIVTLIMLLPFIFILVGAFDKFGKDTISNKAQTFNTNEADQYLIHMIPIDNISLTSDGKTKENKKDNDVYTQIKPLLIGDSVMVDIGEQFKTKVPKAKIDGKVGRQLYQAESLVKNQYRHYNKPSDQIILELGTNGDFTKEQLDNLIDKFGKAQVYLVNTRVPRSYESHVNELMAKAAKNKKNVTLIDWYSRSKGHTEYFAPDGIHLENDGVEALTDEILKNIKKK”, the protein production result is “failed”.
Regarding “MARLGKKSRNGAFWAKALERAHLGVWDWDLRSGDCFYSATWARMLGYEEDELANTSDLWLQLTHPDDRERALASGDRHIAGLTDAIETELRLKHKLGHWVWVLDRGGIVESGADGRPLRLMGVQTDISKQKAAEAALEQVTMRFRLALAASGTGIWHYDIATHKSYWDARTREMFGVVADADEVAADLWHSFLHPDDKEATERAHWPSPGSNGVTASQYRIVKRDGEIRHIESLVRYVAAAGAAGQILGTVRDITEDKLREQELAFAARHDALTGLWNRAAFDRLLADHIAKGVPLAVFYVDLDYFKALNDFAGHAAGDLALKSVAAGIGRCLPPSAHAARLGGDEFALLVPHCDAAQAERLAAAILAAVRSADLGLAATARRLAASIGIAIVNDRATTVADALACADDACYAAKAAGRDRFAVFSAEAATGGLNAARLAADTVDAMEDGRLKLFGQEIHRLGRPWQENRHVEVLARLVGRGGKLIPPSEFIPAAERFGIAARLDRWIIRTALSRHGAAMKSGAITLGFNLSAQTLSDPGLWDFVDSIIEETGAPHSGIGFEITETAAVTNFDAAETFVRKARERRCKVSLDDFGAGMSSFEYLRRFPVDAIKIDGSFIEHMAESRFDREIVSAISGIARSVGCTVVAEKIEQAETLGILQTMGVDFGQGFLLHRPEPLEQIVARAAGPARAAPARKAS”, the protein production result is “failed”.
Under “MSQLEIRDLWASIDGETILKGVNLVVPKGEVHALMGPNGAGKSTLGKILAGDPEYTVERGEILLDGENILELSPDERARKGLFLAFQYPVEVPGVTIANFLRLALQAKLGREVGVAEFWTKVKKALELLDWDESYLSRYLNEGFSGGEKKRNEILQLLVLEPTYAVLDETDSGLDIDALKVVARGVNAMRGPNFGALVITHYQRILNYIQPDKVHVMMDGRVVATGGPELALELEAKGYEWLKEKVKEGA” stands “not failed”; under “MSNEDNVRQETKNKKEKLRLSFPETRFMKFMGGKDLLFALIMLILIGIAIFIFDQVSYIFKPFIIVFNTIVAPIIVSIILYYLFNPLVNLMERYNISRLWGVIILFLVIIGVIALAINLLIPVIGTQFKSFGNNFPHYVDKVNQFIDNLTRNSLISNFYGQIQEQLDALANKLPSMVSDYFNGFGSKVKNFAEAIVNVGVVIATTPFVLFFMLKDSHHFKEYSTKLMPPKFRKDYHDLLDKMSVQVGSYIQGQIIVSFCIGILLFIGYSIIGLDYSLILASIAAVTSVVPYLGPTIAISPAIIIALITSPIMLLKLIIVWTAVQFIEGHFISPNIMGKTLKIHPLTIIFILLSAGNLLGVVGVILGIPAYAILKVLVSHLYSMYKRRYNKYYGDDAGEYEITNDEQIR”, “failed”.
The result for “EVILGDGIFPLTALAVGKDDRAFAVIRTAGGQAPHPDVDFPELSSTGLLLSSLKPADRALLPEGTPDREVSIDLGGQMMPYEWRILTDGQSSSATVQEGQRLRMVMRNRTMMPHPMHIHGHTWALPGSGGLRKDTVLLRHGETMIADLIADNPGEWAFHCHNAYHMETGMLSSLRYE” reads “failed”.
Take “MMIVDPKYCSLHPVDLAIVRKVLKITDGNFVITNAEGNLLFKVKDPFFSLHEKRILMDGFGTKVLTLKGKIMTMHDRWLVFRGGSTEEVDLLYTVKRSNMVQITTKLDVFLADNIEQKKCDYRLEGVWLETSCFVYAGDSDIILAQMREKKTMQSVLFGKDNFCLTVNPNVDYAFIASLIVILFHQKDDIYPIESLWKRDITDFIC”: the protein production entry is on record as “failed”.
In the case of “KEKDTIAAEHKQEASVLLNLHRNKINYLIGETMARMTSLSIAIDRPVDIKKMQSILEKTFDSEPRFSGLYFLNAKGDVTASTTELKTKVNLADRSFFIKAKETKKTVISDSYSSRITGQPIFTICVPVLDSKRNVTDYLVAAIQIDYLKNLINLLSPDVYIEVVNQDGKMIFASGQASHAEDQKPVSGYLDDISWNMKVYPNPVTIEEL”, the protein production entry is reported as “not failed”.
The result for “MTNQHRASFPSPTRGEGRTRTALATLFLSILFLILPALAARAMDIQQVTSPKGITAWLVEDYSVPIVAVRFVFGGGSTQDPVGKEGLTNLMTGLFDEGAGPLDSEAFQVRLDDAGAEMSFEETRDGVYGSMRMLAEQRDEAFDLLRLAVNEPRFDQAPIDRIRAQILSGIIANENDPDTVAQHRWARAVYGDHPYSRSDQGTRQSIAAITKDDLKALHKAVFARGGLHVAVVGAIDAETLKKKLDMVFGDLPQNQALTPVADVEPKLAQRVEVNYDLPQTSLQLAWPGVKRKSADFFPAVLMNEILGGGTFTSRLFAEVREKRGLAYSVNSSLVNQDHADALIVTTGTRSDRAAETLGIVRDVARQLAEEGPTEAELAATKKYLIGAYAITNLDSSSSIAATLVELQLDDLGIDYMQRRAGYINAVTLDQVKAAAKKLLTAEPTIMVVGPPLAGAGKG” reads “failed”.
The result for “MMVPHLTTALTGPLLTLEKRLLDNMPRIEHWFRSQWQEYGAPFYASVDLRNAGFKLAPVDTNLFPGGFNNLNPDFLPLCIQAAMVAVEKICPDARRLLLIPENHTRNTFYLRNVHALTHILRQAGLEVRIGSIAPEITAPTFLETHDGHSILLEPVRRKANRLELDNFDSCAILLNNDLSGGIPDILQGLEQSLIPPLHAGWATRRKSNHFTAYDRVVEEFAPLIDIDPWLLNPYFDTCGGLDFHARLGEEQLAEKVDSLLAKIRRKYAEYGVKQEPFVIVKADAGTYGMGIMTVKSADDVRDLNRKQRNKMSVVKEGLKVSEVILQEGVYTFEHLKDAVAEPVIYMMDHFVVGGFYRVHTSRGADENLNAPGMHFEPLTFETPCSTPDCAGAPDAAPNRFYAYGVVARLALLAATIELQETDPDLLDERT” reads “not failed”; that for “MFVSLLPLLLLTLVVGTLAGGEAFAERIVTAAGDVLTPAASTLLEDALTSGAGRGGATVLGVGVTLWSALKVFRGLDTAFSRVYGTDGPDSIVREIVDGLAALGGIGIALVGLGIIGAFGTVLGVQVALGGLALVPVLAVAFLPLYYLFPDQEMTLREAVPGAVFAGGGWTLLGTGFNVYAAQADSYQVYGVIGGVLLLVTWFYFAGQVLLVGAAVNAALADRQLQQVSRRRSGKAMSEDADETDTPPPAGTGPTGRDTDTLTDEELQELREEFESFREDIEGRTLHRDEVRSDLKQYVRRRMRRGHARQWGPYIVLLYGTIMTLGAFYYLKGLWAVLAMLVIWLSVLGLYAIMIAVGVTLTATGLPGRLVDRVRDWRQ”, “failed”.
With “STGESSSVSERGSLKQQLREYIRWEEAARNLLGLIEAKENRNHQPPQPKALGNQQPSWDSEDSSNFKD”, the protein production entry is “failed”.
The result for “ATSYMTCSAYQKVQDSEISFPAGVEVQVLEKQESGWWYVRFGELEGWAPSHYLVLDENEQPDPSGKE” reads “not failed”; that for “MKVEFLMTNHNHQHHHSHAHGHVHTDNKKVLMFSFIIISLFMLVEIIGGFLANSLALLSDGFHMLSDAISLGVALIAFIYAEKHATKSKTYGYKRFEILAALFNGVTLFIISIIIIIEAIRRFLEPPEVQSKEMFIISVIGLMVNIIVAILMFKGGDTSHNLNMRGAFLHVLGDLFGSVGAIVASLLIWGFNFTIADPIASILVSLIILKSAYGISKSSLNILMEGTPNDIDLNAVIKAISKDERIQNVHDCHVWTISNDMNALSCHAVVPEYLSVQTCETMLKSIESDLLQLNIQHMTIQLETPEHKHDESTLCSGIHEHSH”, “failed”.
